According to the supplement of paper PMC10567573:

B1: PPEF2 (parent)
chain: DHSGFISLDEFRQTWKLFSSHMNI

Variants of: B1
Assay: protein stability index of a GFP-peptide fusion (GPS, HEK-293T) (PSI 1-6); higher = more stable
Conditions: c terminus: a fixed tail appended
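Also: lentivirally expressed fusions sorted by FACS into six bins by GFP to DsRed ratio, PSI derived from sequencing read proportions per bin multiplied by bin number.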

Variant	protein stability index
DHSGKISLDEFRQTWKLFSSHMNI	1.52
DHSGDISLDEFRQTWKLFSSHMNI	1.41
DHSGEISLDEFRQTWKLFSSHMNI	1.65
DHSGMISLDEFRQTWKLFSSHMNI	1.4
DHSGIISLDEFRQTWKLFSSHMNI	1.86
DHSGYISLDEFRQTWKLFSSHMNI	2.35
DHSGAISLDEFRQTWKLFSSHMNI	1.33
DHSGVISLDEFRQTWKLFSSHMNI	1.53
DHSGHISLDEFRQTWKLFSSHMNI	1.77
DHSGLISLDEFRQTWKLFSSHMNI	1.92
DHSGWISLDEFRQTWKLFSSHMNI	1.93
DHSGCISLDEFRQTWKLFSSHMNI	1.66
DHSGGISLDEFRQTWKLFSSHMNI	2.5
DHSGRISLDEFRQTWKLFSSHMNI	1.28
DHSGSISLDEFRQTWKLFSSHMNI	1.85
DHSGPISLDEFRQTWKLFSSHMNI	2.12
DHSGTISLDEFRQTWKLFSSHMNI	1.54
DHSGQISLDEFRQTWKLFSSHMNI	1.73
DHSGNISLDEFRQTWKLFSSHMNI	2.13
DCSGFISLDEFRQTWKLFSSHMNI	1.75
DTSGFISLDEFRQTWKLFSSHMNI	1.72
DRSGFISLDEFRQTWKLFSSHMNI	1.34
DISGFISLDEFRQTWKLFSSHMNI	1.91
DVSGFISLDEFRQTWKLFSSHMNI	1.45

Variant	protein stability index
DQSGFISLDEFRQTWKLFSSHMNI	1.75
DPSGFISLDEFRQTWKLFSSHMNI	2.32
DFSGFISLDEFRQTWKLFSSHMNI	1.9
DLSGFISLDEFRQTWKLFSSHMNI	1.25
DKSGFISLDEFRQTWKLFSSHMNI	2.01
DGSGFISLDEFRQTWKLFSSHMNI	1.43
DNSGFISLDEFRQTWKLFSSHMNI	1.14
DYSGFISLDEFRQTWKLFSSHMNI	2.11
DMSGFISLDEFRQTWKLFSSHMNI	3.51
DWSGFISLDEFRQTWKLFSSHMNI	1.82
DSSGFISLDEFRQTWKLFSSHMNI	1.92
DDSGFISLDEFRQTWKLFSSHMNI	1.86
DASGFISLDEFRQTWKLFSSHMNI	2.35
DESGFISLDEFRQTWKLFSSHMNI	1.44
DHSVFISLDEFRQTWKLFSSHMNI	3.22
DHSTFISLDEFRQTWKLFSSHMNI	1.95
DHSNFISLDEFRQTWKLFSSHMNI	2.69
DHSSFISLDEFRQTWKLFSSHMNI	1.51
DHSWFISLDEFRQTWKLFSSHMNI	1.98
DHSMFISLDEFRQTWKLFSSHMNI	1.65
DHSFFISLDEFRQTWKLFSSHMNI	2.5
DHSYFISLDEFRQTWKLFSSHMNI	2.27
DHSAFISLDEFRQTWKLFSSHMNI	2.89
DHSEFISLDEFRQTWKLFSSHMNI	2.16

Variant	protein stability index
DHSPFISLDEFRQTWKLFSSHMNI	1.98
DHSCFISLDEFRQTWKLFSSHMNI	2.41
DHSIFISLDEFRQTWKLFSSHMNI	2.78
DHSQFISLDEFRQTWKLFSSHMNI	2.47
DHSLFISLDEFRQTWKLFSSHMNI	2.95
DHSKFISLDEFRQTWKLFSSHMNI	1.31
DHSRFISLDEFRQTWKLFSSHMNI	1.87
DHSHFISLDEFRQTWKLFSSHMNI	2.28
DHSDFISLDEFRQTWKLFSSHMNI	1.78
DHSGFIELDEFRQTWKLFSSHMNI	1.86
DHSGFIFLDEFRQTWKLFSSHMNI	2.52
DHSGFIGLDEFRQTWKLFSSHMNI	2.95
DHSGFIHLDEFRQTWKLFSSHMNI	1.83
DHSGFIALDEFRQTWKLFSSHMNI	2.06
DHSGFIDLDEFRQTWKLFSSHMNI	1.47
DHSGFICLDEFRQTWKLFSSHMNI	2.37
DHSGFVSLDEFRQTWKLFSSHMNI	1.41
DHSGFSSLDEFRQTWKLFSSHMNI	1.75
DHSGFLSLDEFRQTWKLFSSHMNI	1.65
DHSGFFSLDEFRQTWKLFSSHMNI	1.03
DHSGFNSLDEFRQTWKLFSSHMNI	1.6
DHSGFYSLDEFRQTWKLFSSHMNI	1.89
DHSGFKSLDEFRQTWKLFSSHMNI	1.94
DHSGFPSLDEFRQTWKLFSSHMNI	2.02

Variant	protein stability index
DHSGFGSLDEFRQTWKLFSSHMNI	1.28
DHSGFRSLDEFRQTWKLFSSHMNI	2.08
DHSGFQSLDEFRQTWKLFSSHMNI	1.91
DHSGFWSLDEFRQTWKLFSSHMNI	1.82
DHSGFMSLDEFRQTWKLFSSHMNI	2.32
DHSGFDSLDEFRQTWKLFSSHMNI	1.62
DHSGFHSLDEFRQTWKLFSSHMNI	1.71
DHSGFTSLDEFRQTWKLFSSHMNI	1.71
DHSGFCSLDEFRQTWKLFSSHMNI	1.86
DHSGFASLDEFRQTWKLFSSHMNI	1.39
DHSGFESLDEFRQTWKLFSSHMNI	1.66
DHQGFISLDEFRQTWKLFSSHMNI	1.85
DHCGFISLDEFRQTWKLFSSHMNI	1.81
DHYGFISLDEFRQTWKLFSSHMNI	2.27
DHVGFISLDEFRQTWKLFSSHMNI	1.46
DHTGFISLDEFRQTWKLFSSHMNI	2.62
DHRGFISLDEFRQTWKLFSSHMNI	2.58
DHWGFISLDEFRQTWKLFSSHMNI	1.8
DHMGFISLDEFRQTWKLFSSHMNI	1.69
DHHGFISLDEFRQTWKLFSSHMNI	1.69
DHEGFISLDEFRQTWKLFSSHMNI	2.17
DHDGFISLDEFRQTWKLFSSHMNI	2
